Biological target: GroEL (E. coli Cpn60) (E. coli) (UniProt P0A6F5)
Experiment: cell-based or functional assay

Chain of GroEL (E. coli Cpn60) (E. coli) (P0A6F5 2-548 limits assumed): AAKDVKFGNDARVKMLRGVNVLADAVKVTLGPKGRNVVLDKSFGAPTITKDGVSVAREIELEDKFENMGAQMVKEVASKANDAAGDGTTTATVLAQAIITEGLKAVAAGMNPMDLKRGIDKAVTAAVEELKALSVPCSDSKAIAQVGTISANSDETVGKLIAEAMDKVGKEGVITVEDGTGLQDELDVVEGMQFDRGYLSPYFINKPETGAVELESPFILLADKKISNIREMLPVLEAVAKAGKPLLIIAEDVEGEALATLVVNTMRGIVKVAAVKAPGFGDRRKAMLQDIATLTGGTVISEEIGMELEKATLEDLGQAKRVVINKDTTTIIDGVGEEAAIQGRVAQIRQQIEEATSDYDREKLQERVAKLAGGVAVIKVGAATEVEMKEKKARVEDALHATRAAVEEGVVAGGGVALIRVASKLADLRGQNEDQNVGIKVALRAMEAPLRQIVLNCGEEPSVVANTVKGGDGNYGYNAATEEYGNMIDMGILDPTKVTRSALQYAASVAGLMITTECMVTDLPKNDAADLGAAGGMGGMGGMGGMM

B1: E. coli Cpn10 (GroES) (protein)
chain: MNIRPLHDRVIVKRKEVETKSAGGIVLTGSAAAKSTRGEVLAVGNGRILENGEVKPLDVKVGDIVIFNDGYGVKSEKIDNEEVLIMSESDILAIVEA
Question: Which Refolding activity (% of Ala-Cpn10) (% of Ala-Cpn10) does the source give for B1 here?
Answer: 109
